From article PMC3597821

What was measured:
DmAgo2 = target: T1, DmAgo2 (Drosophila melanogaster, UniProt Q9VUQ5 403-1214); test: competitive double filter binding
T1 sequence: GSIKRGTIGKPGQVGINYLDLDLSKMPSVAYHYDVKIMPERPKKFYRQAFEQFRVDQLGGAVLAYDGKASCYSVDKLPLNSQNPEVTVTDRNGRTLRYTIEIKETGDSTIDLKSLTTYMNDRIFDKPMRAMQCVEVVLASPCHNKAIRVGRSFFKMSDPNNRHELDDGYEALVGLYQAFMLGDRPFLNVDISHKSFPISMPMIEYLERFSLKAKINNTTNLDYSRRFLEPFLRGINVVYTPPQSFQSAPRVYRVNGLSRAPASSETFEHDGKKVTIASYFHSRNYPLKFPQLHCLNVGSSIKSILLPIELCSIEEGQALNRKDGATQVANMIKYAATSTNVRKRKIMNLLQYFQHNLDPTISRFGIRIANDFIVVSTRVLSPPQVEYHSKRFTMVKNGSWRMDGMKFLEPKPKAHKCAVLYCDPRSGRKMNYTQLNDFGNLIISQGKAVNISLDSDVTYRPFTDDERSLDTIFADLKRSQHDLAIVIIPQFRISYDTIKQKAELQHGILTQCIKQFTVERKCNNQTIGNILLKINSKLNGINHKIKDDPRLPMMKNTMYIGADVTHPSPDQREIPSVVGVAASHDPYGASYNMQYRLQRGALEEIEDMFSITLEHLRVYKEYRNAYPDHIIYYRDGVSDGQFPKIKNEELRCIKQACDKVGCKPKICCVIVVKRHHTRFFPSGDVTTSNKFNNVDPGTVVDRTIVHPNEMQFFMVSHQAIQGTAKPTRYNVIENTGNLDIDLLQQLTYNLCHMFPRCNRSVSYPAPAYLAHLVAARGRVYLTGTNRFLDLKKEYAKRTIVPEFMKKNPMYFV

DmAgo1 WT = DmAgo1 WT (Drosophila melanogaster, UniProt A1Z9J5 1-950); test: filter binding

Row | Binder | Kd (DmAgo2) | binding result (DmAgo1 WT)
1 | UGAGAUCAUUUUGAAAGCUGAUU (ssRNA, 5' phosphate on labeled RNA (PNK)) [bantam miRNA 23 nt] | 10.7 ± 1 nM | –
2 | bantam guide / 43-nt target (1-12 match) (dsRNA, target printed as DNA letters, assayed as RNA) RNA 1: UGAGAUCAUUUUGAAAGCUGAUU RNA 2: AGUUCUUAAGUUAGUCGAAACAAAAUGAUCUCACAUAGGCUUA | – | binds
